Patent US7858745B2, “Use of specifically engineered enzymes to enhance the efficacy of prodrugs” (The Board of Trustees of the University of Illinois, priority 2003, dated 2010)

Experiments:
[1] = test system: Nc1ccn([C@@H]2O[C@H](CO)[C@@H](O)C2(F)F)c(=O)n1; test: purified protein, by the assay type; settings: other: nucleoside as substrate, pH 7.5
[2] = test system: Nc1ccn([C@H]2CC[C@@H](CO)O2)c(=O)n1; test: purified protein, by the assay type; settings: other: nucleoside as substrate, dCK 0.4 μM, ATP•Mg 1 mM, 37° C., pH 7.5
[3] = dCK 0.4 μM, ATP•Mg 1 mM, 37° C.

A100V/R104M/D133A-dCK (Homo sapiens; A100V/D133A/R104M), sequence (chain, as listed by the source A100V R104M D133A A100V D133A R104M): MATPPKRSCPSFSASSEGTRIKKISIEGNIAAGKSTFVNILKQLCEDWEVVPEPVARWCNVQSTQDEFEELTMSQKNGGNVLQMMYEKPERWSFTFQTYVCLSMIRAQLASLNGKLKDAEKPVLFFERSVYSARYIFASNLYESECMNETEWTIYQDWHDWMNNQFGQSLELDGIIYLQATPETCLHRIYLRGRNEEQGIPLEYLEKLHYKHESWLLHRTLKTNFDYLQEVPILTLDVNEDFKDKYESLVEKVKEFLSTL
Wild Type dCK (Homo sapiens), sequence (chain, as listed by the source): as the sequence (chain, as listed by the source A100V R104M D133A A100V D133A R104M) above, with V100A, M104R, A133D counted along it

| Substance | Km ([1]; triple mutant, 37.0 °C) [µM] | kcat ([1]; triple mutant, 37.0 °C) [s⁻¹] | kcat/Km ([1]; triple mutant, 37.0 °C) [M⁻¹ s⁻¹] | Km [1, 3] [µM] | kcat [1, 3] [s⁻¹] | kcat/Km [1, 3] [M⁻¹ s⁻¹] | Km [2] [µM] | kcat [2] [s⁻¹] | kcat/Km [2] [M⁻¹ s⁻¹] |
| --- | --- | --- | --- | --- | --- | --- | --- | --- | --- |
| A100V/R104M/D133A-dCK (Homo sapiens; A100V/D133A/R104M) | 50 | 3.52 | 70400 |  |  |  |  |  |  |
| Wild Type dCK (Homo sapiens) |  |  |  | 22.0 | 0.37 | 16800 | 406.8 | 0.18 | 400 |
